# Experimental data taken from patent publication US20160355553A1 (Janssen / Centocor, published 2016).
# T1: FL4-06 B-m2-CL1+5 (influenza B virus, UniProt P03461 6-574)
# T1 chain: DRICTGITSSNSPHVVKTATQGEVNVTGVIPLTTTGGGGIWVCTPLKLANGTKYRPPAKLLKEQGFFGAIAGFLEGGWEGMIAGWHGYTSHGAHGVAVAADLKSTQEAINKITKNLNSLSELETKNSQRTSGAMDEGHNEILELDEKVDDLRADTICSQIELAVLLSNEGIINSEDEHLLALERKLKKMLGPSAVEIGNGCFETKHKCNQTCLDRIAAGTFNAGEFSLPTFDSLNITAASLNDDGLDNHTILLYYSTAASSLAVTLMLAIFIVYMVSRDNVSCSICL
# T2: Mal2506-04 B-m2-CL1+5-GCN4b (influenza B virus, UniProt P03461 6-574)
# T2 chain: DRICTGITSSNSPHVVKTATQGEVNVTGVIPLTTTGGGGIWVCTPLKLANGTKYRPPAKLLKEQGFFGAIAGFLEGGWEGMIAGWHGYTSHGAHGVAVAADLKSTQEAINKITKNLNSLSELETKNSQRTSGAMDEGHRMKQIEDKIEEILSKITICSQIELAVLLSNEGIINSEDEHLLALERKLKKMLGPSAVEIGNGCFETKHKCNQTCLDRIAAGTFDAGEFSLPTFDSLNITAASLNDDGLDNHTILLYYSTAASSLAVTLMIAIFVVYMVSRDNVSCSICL
# B1: CR9114 (antibody, V domains shown)
# VH: QVQLVQSGAEVKKPGSSVKVSCKSSGGTSNNYAISWVRQAPGQGLDWMGGISPIFGSTAYAQKFQGRVTISADIFSNTAYMELNSLTSEDTAVYFCARHGNYYYYSGMDVWGQGTTVTVSS
# VL: SYVLTQPPAVSGTPGQRVTISCSGSDSNIGRRSVNWYQQFPGTAPKLLIYSNDQRPSVVPDRFSGSKSGTSASLAISGLQSEDEAEYYCAAWDDSLKGAVFGGGTQLTVL
# Tests used:
# FL4-06 B-m2-CL1+5 = biological target: T1, FL4-06 B-m2-CL1+5; test: FACS, transfected cells
# [1] = biological target: T2, Mal2506-04 B-m2-CL1+5-GCN4b; test: FACS, transfected cells
binder,measurement,setting,value
B1,binding result,FL4-06 B-m2-CL1+5,no binding
same,binding result,[1],no binding
